One assay has as its system rat islets. Nature of the assay: Insulin secretion by rat islets with soluble neuroligin-2. The format is cell-based. The note with it: 20 mM glucose, read-out: half-maximal inhibition of insulin secretion. As to the method: Soluble neuroligin-2 extracellular domain was added to cultures of rat islets at the indicated concentrations. Insulin secretion was then measured (20 mM glucose). […] The soluble protein competes with endogenous, clustered neuroligin for binding to transcellular partners.

The test system of the next assay is human islet cells. Nature of the assay: GSIS of dissociated human islet cells after clustered rNL2ED-Fc. The assay is classed as cell-based. The note with it: added 4 hours prior to GSIS. As to the method: FIG. 24 depicts insulin secretion by human islet cells after incubation with cross-linked, clustered rNL2ED-Fc. Indicated volume of solution containing cross-linked rNL2ED-Fc (90 μg/ml) or vehicle alone was added to equal numbers of dissociated human islet cells 4 hours prior to determination of GSIS. Stimulated insulin secretion is shown. […] (n=6 wells, representative of 3 separate experiments).
A recombinant protein with the extracellular domain of neuroligin-2 fused to an IgG Fc domain (rNL2ED-Fc) has been made. In contrast to the peptidomimetic agents, which are modeled on the neurexin binding site, this protein should be able to interact with all extracellular neuroligin-2 binding partners. Chemically cross-linked clusters incorporating this protein are made. Clustered complexes that sufficiently mimic endogenous clustered neuroligin-2 promote β-cell maturation and function to a greater degree than the peptidomimetic-based reagents. […] In contrast, rNL2ED monomers had no effect (not shown).

The values below come from patent US20230079439A1, “Compositions and Methods for Enhancing Beta Cell Maturation, Health and Function” (THE REGENTS OF THE UNIVERSITY OF CALIFORNIA, priority 2016, published 2023).

B1: Soluble neuroligin-2 extracellular domain: soluble protein that competes with endogenous, clustered neuroligin for binding to transcellular partners (protein, UniProt Q8NFZ4 15-677, looked up)
extracellular domain: QRGGGGPGGGAPGGPGLGLGSLGEERFPVVNTAYGRVRGVRRELNNEILGPVVQFLGVPYATPPLGARRFQPPEAPASWPGVRNATTLPPACPQNLHGALPAIMLPVWFTDNLEAAATYVQNQSEDCLYLNLYVPTEDGPLTKKRDEATLNPPDTDIRDPGKKPVMLFLHGGSYMEGTGNMFDGSVLAAYGNVIVATLNYRLGVLGFLSTGDQAAKGNYGLLDQIQALRWLSENIAHFGGDPERITIFGSGAGASCVNLLILSHHSEGLFQKAIAQSGTAISSWSVNYQPLKYTRLLAAKVGCDREDSAEAVECLRRKPSRELVDQDVQPARYHIAFGPVVDGDVVPDDPEILMQQGEFLNYDMLIGVNQGEGLKFVEDSAESEDGVSASAFDFTVSNFVDNLYGYPEGKDVLRETIKFMYTDWADRDNGEMRRKTLLALFTDHQWVAPAVATAKLHADYQSPVYFYTFYHHCQAEGRPEWADAAHGDELPYVFGVPMVGATDLFPCNFSKNDVMLSAVVMTYWTNFAKTGDPNQPVPQDTKFIHTKPNRFEEVVWSKFNSKEKQYLHIGLKPRVRDNYRANKVAFWLELVPHLHNLHTELFTTTTRLPPYATRWPPRPPAGAPGTRRPPPPATLPPEPEPEPGPRAYDRFPGDSRDYSTELS
modifications: extracellular domain
As for B1, the IC50 with rat islets came to 9 nM.

B2: rNL2ED monomers: non-clustered recombinant neuroligin-2 extracellular domain (protein, UniProt Q62888 15-678, looked up)
extracellular domain: QRGGGGPGGGAPGGPGLGLGSLGEERFPVVNTAYGRVRGVRRELNNEILGPVVQFLGVPYATPPLGARRFQPPEAPASWPGVRNATTLPPACPQNLHGALPAIMLPVWFTDNLEAAATYVQNQSEDCLYLNLYVPTEDGPLTKKRDEATLNPPDTDIRDSGKKPVMLFLHGGSYMEGTGNMFDGSVLAAYGNVIVATLNYRLGVLGFLSTGDQAAKGNYGLLDQIQALRWLSENIAHFGGDPERITIFGSGAGASCVNLLILSHHSEGLFQKAIAQSGTAISSWSVNYQPLKYTRLLAAKVGCDREDSTEAVECLRRKSSRELVDQDVQPARYHIAFGPVVDGDVVPDDPEILMQQGEFLNYDMLIGVNQGEGLKFVEDSAESEDGVSASAFDFTVSNFVDNLYGYPEGKDVLRETIKFMYTDWADRDNGEMRRKTLLALFTDHQWVAPAVATAKLHADYQSPVYFYTFYHHCQAEGRPEWADAAHGDELPYVFGVPMVGATDLFPCNFSKNDVMLSAVVMTYWTNFAKTGDPNQPVPQDTKFIHTKPNRFEEVVWSKFNSKEKQYLHIGLKPRVRDNYRANKVAFWLELVPHLHNLHTELFTTTTRLPPYATRWPPRTPGPGTSGTRRPPPPATLPPESDIDLGPRAYDRFPGDSRDYSTELS
modifications: extracellular domain
notes: non-clustered recombinant neuroligin-2 extracellular domain
Take B2: the “stimulated insulin secretion by human β-cells” value with human islet cells is reported as “had no effect”.
